Sequences and labels used below:
B1: SRC kinase associated phosphoprotein 1 (SKAP1), wild type, N2-fused [human] / LYN, N1-fused [not stated] (parent)
chain 1: MQAAALPEEIRWLLEDAEEFLAEGLRNENLSAVARDHRDHILRGFQQIKARYYWDFQPQGGDIGQDSSDDNHSGTLGLSLTSDAPFLSDYQDEGMEDIVKGAQELDNVIKQGYLEKKSKDHSFFGSEWQKRWCVVSRGLFYYYANEKSKQPKGTFLIKGYGVRMAPHLRRDSKKESCFELTSQDRRSYEFTATSPAEARDWVDQISFLLKDLSSLTIPYEEDEEEEEKEETYDDIDGFDSPSCGSQCRPTILPGSVGIKEPTEEKEEEDIYEVLPDEEHDLEEDESGTRRKGVDYASYYQGLWDCHGDQPDELSFQRGDLIRILSKEYNMYGWWVGELNSLVGIVPKEYLTTAFEVEER
chain 2: MGCIKSKGKDSLSDDGVDLKTQPVRNTERTIYVRDPTSNKQQRPVPESQLLPGQRFQTKDPEEQGDIVVALYPYDGIHPDDLSFKKGEKMKVLEEHGEWWKAKSLLTKKEGFIPSNYVAKLNTLETEEWFFKDITRKDAERQLLAPGNSAGAFLIRESETLKGSFSLSVRDFDPVHGDVIKHYKIRSLDNGGYYISPRITFPCISDMIKHYQKQADGLCRRLEKACISPKPQKPWDKDAWEIPRESIKLVKRLGAGQFGEVWMGYYNNSTKVAVKTLKPGTMSVQAFLEEANLMKTLQHDKLVRLYAVVTREEPIYIITEYMAKGSLLDFLKSDEGGKVLLPKLIDFSAQIAEGMAYIERKNYIHRDLRAANVLVSESLMCKIADFGLARVIEDNEYTAREGAKFPIKWTAPEAINFGCFTIKSDVWSFGILLYEIVTYGKIPYPGRTNADVMTALSQGYRMPRVENCPDELYDIMKMCWKEKAEERPTFDYLQSVLDDFYTATEGQYQQQP
B2: SRC kinase associated phosphoprotein 1 (SKAP1), wild type, N2-fused [human] / SRMS, N1-fused [not stated] (parent)
chain 1: B1 chain 1
chain 2: MEPFLRRRLAFLSFFWDKIWPAGGEPDHGTPGSLDPNTDPVPTLPAEPCSPFPQLFLALYDFTARCGGELSVRRGDRLCALEEGGGYIFARRLSGQPSAGLVPITHVAKASPETLSDQPWYFSGVSRTQAQQLLLSPPNEPGAFLIRPSESSLGGYSLSVRAQAKVCHYRVSMAADGSLYLQKGRLFPGLEELLTYYKANWKLIQNPLLQPCMPQKAPRQDVWERPHSEFALGRKLGEGYFGEVWEGLWLGSLPVAIKVIKSANMKLTDLAKEIQTLKGLRHERLIRLHAVCSGGEPVYIVTELMRKGNLQAFLGTPEGRALRLPPLLGFACQVAEGMSYLEEQRVVHRDLAARNVLVDDGLACKVADFGLARLLKDDIYSPSSSSKIPVKWTAPEAANYRVFSQKSDVWSFGVLLHEVFTYGQCPYEGMTNHETLQQIMRGYRLPRPAACPAEVYVLMLECWRSSPEERPSFATLREKLHAIHRCHP
B3: SRC kinase associated phosphoprotein 1 (SKAP1), wild type, N2-fused [human] / FRK, N1-fused [not stated] (parent)
chain 1: B1 chain 1
chain 2: MSNICQRLWEYLEPYLPCLSTEADKSTVIENPGALCSPQSQRHGHYFVALFDYQARTAEDLSFRAGDKLQVLDTLHEGWWFARHLEKRRDGSSQQLQGYIPSNYVAEDRSLQAEPWFFGAIGRSDAEKQLLYSENKTGSFLIRESESQKGEFSLSVLDGAVVKHYRIKRLDEGGFFLTRRRIFSTLNEFVSHYTKTSDGLCVKLGKPCLKIQVPAPFDLSYKTVDQWEIDRNSIQLLKRLGSGQFGEVWEGLWNNTTPVAVKTLKPGSMDPNDFLREAQIMKNLRHPKLIQLYAVCTLEDPIYIITELMRHGSLQEYLQNDTGSKIHLTQQVDMAAQVASGMAYLESRNYIHRDLAARNVLVGEHNIYKVADFGLARVFKVDNEDIYESRHEIKLPVKWTAPEAIRSNKFSIKSDVWSFGILLYEIITYGKMPYSGMTGAQVIQMLAQNYRLPQPSNCPQQFYNIMLECWNAEPKERPTFETLRWKLEDYFETDSSYSDANNFIR

Variants of B1 are the subject of the first assay. Put plainly: luciferase complementation assay (normalized luciferase ratio, NLR). Conditions: with LYN, HEK293T cells, one experiment, read off a plot.
Regarding chain 1 D120K, the ratio to parent turned out to be 1.4. In the case of chain 1 W333K, the ratio to parent turned out to be 1.8.

The variants in another assay derive from B2. The description is as above. Conditions: with SRMS, HEK293T cells, one experiment, read off a plot.
With chain 1 W333K, the ratio to parent is 1.2.

Another assay covers variants of B3. The description is as above. Conditions: with FRK, HEK293T cells, one experiment, read off a plot.
For chain 1 D120K, the ratio to parent worked out at 1. Same read-out and setting: under chain 1 W333K stands 0.84.

(Values after PMC10939263.)
